Data set [1] is described as follows: AUC.
The target of data set [2] is full-length SaPC F403A mutant (Staphylococcus aureus). The data set can be described thus: AUC.
The target is the same in data set [3]. Description: SEC. (In general: In gel filtration, larger molecules generally elute earlier.)
The target is the same in data set [4]. Description: AUC. This is another data set of the same source.
Data set [5] has as its target full-length SaPC K442E mutant (Staphylococcus aureus). Description: AUC.
Data set [6] has the same target. Description: SEC.
Data set [7] has the same target. The data set can be described thus: AUC. The source holds these as a separate data set.
Data set [8] has as its target full-length SaPC R54E mutant (Staphylococcus aureus). Description: AUC.
For data set [9] the target is unchanged. The data set can be described thus: SEC.
The target is the same in data set [10]. Description: AUC. This is another data set of the same source.
Data set [11] addresses isolated BC domain of SaPC, R54E mutant (Staphylococcus aureus). Description: AUC.
Data set [12] concerns the molecule itself. The data set can be described thus: AUC.
Data set [13] concerns the molecule itself. The data set can be described thus: AUC. This is another data set of the same source.

For orientation: Kd means the concentration at which binding is half-saturated. Low values mean higher affinity, high ones lower affinity. A word on the stoichiometry N: it is the number of molecules, sites or subunits per partner or assembly.

Like-named read-outs stand apart in the source and are kept apart here.

Consider full-length SaPC F403A mutant, for which the Monomer (%) in [1] turned out to be 9%.
Take full-length SaPC F403A mutant (enzyme): the Kd in data set [2] stood at 11 nM. This molecule also registered a stoichiometry N in [3] of 4. Further, in data set [4], the Dimer (%) worked out at 2%, the Kd worked out at 450 nM and the Tetramer (%) was determined as 85%.
Regarding full-length SaPC K442E mutant, the Monomer (%) in data set [1] is 10%.
Consider full-length SaPC K442E mutant (enzyme), for which the figures for the Kd in [5] and in [7] were 840000 nM and 820 nM, respectively. The molecule also registered a stoichiometry N in data set [6] of 2. For the same molecule, the Dimer (%) in data set [7] amounted to 65%.
Molecule full-length SaPC R54E mutant showed a Monomer (%) in data set [1] of 4%.
With full-length SaPC R54E mutant (enzyme), the Kd in [8] is 3 nM. Also, in data set [9], the stoichiometry N came to 4. In data set [10], the Dimer (%) is 0%, the Kd came to 530 nM and the Tetramer (%) stood at 96%.
In [11], “isolated BC domain of SaPC, R54E mutant (domain or fragment)” displayed a Kd of 195000 nM.

B1: wild-type full-length Staphylococcus aureus pyruvate carboxylase (enzyme, UniProt A0A0H3JRU9 1-1150, looked up)
chain: MKQIKKLLVANRGEIAIRIFRAAAELDISTVAIYSNEDKSSLHRYKADESYLVGSDLGPAESYLNIERIIDVAKQANVDAIHPGYGFLSENEQFARRCAEEGIKFIGPHLEHLDMFGDKVKARTTAIKADLPVIPGTDGPIKSYELAKEFAEEAGFPLMIKATSGGGGKGMRIVREESELEDAFHRAKSEAEKSFGNSEVYIERYIDNPKHIEVQVIGDEHGNIVHLFERDCSVQRRHQKVVEVAPSVGLSPTLRQRICDAAIQLMENIKYVNAGTVEFLVSGDEFFFIEVNPRVQVEHTITEMVTGIDIVKTQILVAAGADLFGEEINMPQQKDITTLGYAIQCRITTEDPLNDFMPDTGTIIAYRSSGGFGVRLDAGDGFQGAEISPYYDSLLVKLSTHAISFKQAEEKMVRSLREMRIRGVKTNIPFLINVMKNKKFTSGDYTTKFIEETPELFDIQPSLDRGTKTLEYIGNVTINGFPNVEKRPKPDYELASIPTVSSSKIASFSGTKQLLDEVGPKGVAEWVKKQDDVLLTDTTFRDAHQSLLATRVRTKDMINIASKTADVFKDGFSLEMWGGATFDVAYNFLKENPWERLERLRKAIPNVLFQMLLRASNAVGYKNYPDNVIHKFVQESAKAGIDVFRIFDSLNWVDQMKVANEAVQEAGKISEGTICYTGDILNPERSNIYTLEYYVKLAKELEREGFHILAIKDMAGLLKPKAAYELIGELKSAVDLPIHLHTHDTSGNGLLTYKQAIDAGVDIIDTAVASMSGLTSQPSANSLYYALNGFPRHLRTDIEGMESLSHYWSTVRTYYSDFESDIKSPNTEIYQHEMPGGQYSNLSQQAKSLGLGERFDEVKDMYRRVNFLFGDIVKVTPSSKVVGDMALYMVQNDLDEQSVITDGYKLDFPESVVSFFKGEIGQPVNGFNKDLQAVILKGQEALTARPGEYLEPVDFEKVRELLEEEQQGPVTEQDIISYVLYPKVYEQYIQTRNQYGNLSLLDTPTFFFGMRNGETVEIEIDKGKRLIIKLETISEPDENGNRTIYYAMNGQARRIYIKDENVHTNANVKPKADKSNPSHIGAQMPGSVTEVKVSVGETVKANQPLLITEAMKMETTIQAPFDGVIKQVTVNNGDTIATGDLLIEIEKATD
As for B1, the values for the Kd in data set [12] and in data set [13] were 8 ± 0.6 nM and 750 ± 60 nM, respectively.

The values above are taken from paper PMC3553216 (Biochemistry, 2013).
